B1: OR4K15 (parent)
chain: GUUAACGGUCAUAGGCCAUGGAAACUAGGAGCACCAUUUCGCUGCCAGUGAAGAAAUGAACAAAGAAAAUCUGGGCCAGGCAGGCAUCAAAAGAAAUAGUCUUGCGCUCAACCAGAAAGUCUGUAAUCAUUUUAAGGGUA

The variants in this series derive from B1. Description: self-cleavage, relative activity (ratio to wild type); higher = more cleavage; in vitro, sequencing; the parent is a self-cleaving ribozyme.
As for G41A A60G, the self-cleavage worked out at 1.63. In the case of U39C U124C, the self-cleavage came out at 1.25. Next, U43A A47U: 1.13; C40U U120C: 1.32.

Take U39A U72G: the self-cleavage was 0.3.

Regarding U38C U39A, the self-cleavage stood at 0.89. For U39A G104A the value was 0.03; for C40A U108A, 0. Next, U38C U108C: 0.02; U39A A82G: 0.44; U39A A82U: 0.28. For C40G G74A the value was 0.29. On to C40A A69G, for which the self-cleavage turned out to be 1.65. For U39A A125G the value was 1.01; for U39C A66G, 0.08; for U39C G138A, 1.78.

With U43A A90G, the self-cleavage worked out at 0.76. In the case of U43A A90U, the self-cleavage turned out to be 1.74. For the variant U39C A55U, the self-cleavage was 2.15. Take C40U U72A: the self-cleavage is 0.34. For G41U A89G, the self-cleavage came out at 2.13.

Consider U39C U97A, for which the self-cleavage is 1.16. Next, U38C U49C: 1.21; U38C U49A: 1.45. For U39C A92G the value was 1.3; for U39C A92U, 1.99.

In the case of G41A A135G, the self-cleavage amounted to 0.99.

Turning to U39A U108C, the self-cleavage turned out to be 0.02. For U39A A52G, the self-cleavage came out at 1.21.

With U38C U57G, the self-cleavage is 1.4. For U39C A91G, the self-cleavage came out at 1.4. As to U39C A69G, the self-cleavage came to 1.37. For G41A U130C the value was 0.99; for C40U A59G, 2.06; for U39C C76A, 0.13. Next, U39A C109U: 0.37. For C42U A95G, the self-cleavage came out at 2.84. For the variant U39A U132C, the self-cleavage amounted to 1.97. Next, U43A A135U: 2.21.

Regarding U43A A135G, the self-cleavage is 1.91. With U43A A135C, the self-cleavage was 1.29. As to G41U A68G, the self-cleavage came to 1.46. In the case of G41A A126G, the self-cleavage amounted to 1.48. Next, U39A A59G: 1.6; C40U A55G: 1.67.

On to U39G A92G, for which the self-cleavage worked out at 1.57. Next, G41A A54G: 1.09. Next, U43A U120C: 0.37; U43A U120G: 1.16.

Regarding U43A U120A, the self-cleavage is 1.57.

With U39G A89G, the self-cleavage is 1.18. Next, U39C A56C: 0.43; U39C A56G: 0.89. Consider C40A A66G, for which the self-cleavage worked out at 1.69. As for C40A A66U, the self-cleavage was 1.52. Consider U39C U108C, for which the self-cleavage is 0.02. For U43A U49C, the self-cleavage came out at 1.49. For C40A A67G the value was 1.7; for U39C A110U, 1.06. For U39C U131C the value was 1.05. On to C42U A60G, for which the self-cleavage amounted to 1.17.

On to U38C U97C, for which the self-cleavage amounted to 1.57.

On to U39G A64G, for which the self-cleavage worked out at 1.12. In the case of G41U A55G, the self-cleavage is 2.29.

As for U39C A118G, the self-cleavage is 1.71. Next, U39C A82G: 0.67.

In the case of C40U A68G, the self-cleavage was found to be 1.84.

For G41A U127A, the self-cleavage stood at 2.15. Next, G41A U127C: 1.22; C42A A69G: 1.88; U38C U43C: 1.59. For U39A A66U the value was 1.74; for U43A A60G, 1.52; for G41C A95G, 2.25. For the variant U39A U57C, the self-cleavage worked out at 0.73. Consider U38G A62G, for which the self-cleavage was 1.59.

For the variant U38G A62U, the self-cleavage was determined as 1.41.

As to U39A A98G, the self-cleavage came to 1.11.

As to U38G A86U, the self-cleavage turned out to be 1.6.

U39C U132A: the self-cleavage stood at 0.7.

As to U39C U132C, the self-cleavage was found to be 1.12. On to U39C U87C, for which the self-cleavage is 1.31. For U38C U131C the value was 1.33. Consider U39C A129U, for which the self-cleavage was determined as 1.16. For U39C A129G, the self-cleavage amounted to 1.7.

Regarding U39A A69U, the self-cleavage was 0.83. For the variant U39A A69G, the self-cleavage was 1.5.

On to U39C G106A, for which the self-cleavage was 0.01. Consider C40U U131C, for which the self-cleavage was determined as 1.93. For U43A U122G the value was 2.29; for U39A G137A, 1.8; for U38C U120A, 1.76. For U39A U120A the value was 1.92. In the case of U39A U120C, the self-cleavage was determined as 0.95.

With G41A A110G, the self-cleavage stood at 0.12. As to G41A U133C, the self-cleavage worked out at 1.98. For U38C U130C the value was 1.5. For C40U U103C the value was 0.96; for U38C U103G, 0.03; for U38G A118G, 0.95. Next, U43A U127C: 1.07; U38C U72C: 0.27; U38C U72A: 0.11. On to U38C U72G, for which the self-cleavage amounted to 0.27. For U39C C77U the value was 1.75. For U39C C77A the value was 0.77; for C42G U43A, 1.91; for U38C G80U, 0.06. For U39C A59U the value was 1.98; for U39C A59G, 1.51; for U39C A114U, 0.1. For U39C U122A, the self-cleavage came to 1.58. Take U39C U122G: the self-cleavage amounted to 1.81. For U39C U122C the value was 1.84. For U39C G48A the value was 1.14.

Turning to U39A U133C, the self-cleavage was found to be 1.76. With U39G A47U, the self-cleavage came to 0.98. U39A A47U: the self-cleavage is 0.73. Next, U39A: 1.35; U39G: 0.79; U39C: 1.34.

On to U39C A47G, for which the self-cleavage is 1.25. For U39C A47C the value was 1.63; for G41A A66G, 1.74; for C42U A126G, 0.91. Regarding U39C C121U, the self-cleavage amounted to 2.87. As for U39A A78U, the self-cleavage was found to be 0.44. For U39A A78G the value was 0.35; for U39A A78C, 0.23; for U39C G79U, 0.1. Next, C40A A111G: 0.02; G41C A64U: 2.26.

Consider U43A A95G, for which the self-cleavage was found to be 0.92. As for C40U A114G, the self-cleavage came to 0.5. Consider U38C U124C, for which the self-cleavage came out at 1.21. Next, U39A A116G: 1.2. G41A A52G: the self-cleavage was 1.07. For the variant U39C U120A, the self-cleavage is 2.52. Consider U39A A67G, for which the self-cleavage is 1.5.

For the variant U39A A67U, the self-cleavage stood at 2.37. In the case of C40U A116G, the self-cleavage was 1.57.

For C42G A111G, the self-cleavage came to 0. Next, U43A: 1.58; C42U C105U: 0.05; U39C C107A: 0.03. For U43A U102C, the self-cleavage came out at 2.2. For U43A U102A the value was 0.78; for G41A A91G, 1.55.

As to U39A A51U, the self-cleavage stood at 1.74.

As to C42U A54G, the self-cleavage came out at 1.96. Next, U38C U122C: 0.8; G41A A114G: 0.75; U39C G50A: 1.2. Next, U39C A86G: 1.19. For U39C A86U the value was 2.13; for U39C A125G, 0.66; for U39C A134U, 1.21. As for U38G A91G, the self-cleavage is 0.38.

In the case of U38C U70A, the self-cleavage worked out at 0.58. For U39A A126G the value was 1.59; for U39A A126C, 0.87; for U39C C61U, 2.41.

Regarding U38C G137A, the self-cleavage was 0.9. Next, G41A A56G: 2.07; U43A A86U: 1.7; U39A A134U: 2.44.

Regarding U39A U49A, the self-cleavage worked out at 1.4.

For the origin of these results see the RNAGym collection of RNA variant scans (doi:10.7554/elife.90254).
